Results as given in patent US20150139990A1 (DAINIPPON SUMITOMO PHARMA, published 2015).
Where a chain is given by its changes, count along the chain named. In names and notes the source's numbering stands.

T1: human CD81 mutant D137A (human, UniProt P60033 1-236, limits assumed)
T1 construct: as m30; not shown: C-terminal V5 and 6xHis tags
T1 sequence: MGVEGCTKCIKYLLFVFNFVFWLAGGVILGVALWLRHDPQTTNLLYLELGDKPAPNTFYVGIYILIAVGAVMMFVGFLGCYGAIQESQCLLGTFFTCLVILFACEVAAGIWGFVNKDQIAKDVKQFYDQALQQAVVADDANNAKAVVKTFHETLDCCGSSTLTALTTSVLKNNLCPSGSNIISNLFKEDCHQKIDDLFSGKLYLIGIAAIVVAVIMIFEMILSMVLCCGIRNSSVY

T2: human CD81 mutant L165A (human, UniProt P60033 1-236, limits assumed)
T2 construct: as m30; not shown: C-terminal V5 and 6xHis tags
T2 sequence: T1 sequence with A137D, L165A

T3: human CD81 mutant V135L (human, UniProt P60033 1-236, limits assumed)
T3 construct: as m30; not shown: C-terminal V5 and 6xHis tags
T3 sequence: T1 sequence with V135L, A137D

T4: human CD81 mutant D137E (human, UniProt P60033 1-236, limits assumed)
T4 construct: as m30; not shown: C-terminal V5 and 6xHis tags
T4 sequence: T1 sequence with A137E

T5: human CD81 mutant H151R (human, UniProt P60033 1-236, limits assumed)
T5 construct: as m30; also called H151B; not shown: C-terminal V5 and 6xHis tags
T5 sequence: T1 sequence with A137D, H151R

T6: human CD81 mutant G158A (human, UniProt P60033 1-236, limits assumed)
T6 construct: as m30; not shown: C-terminal V5 and 6xHis tags
T6 sequence: T1 sequence with A137D, G158A

T7: human CD81 mutant A164V (human, UniProt P60033 1-236, limits assumed)
T7 construct: as m30; not shown: C-terminal V5 and 6xHis tags
T7 sequence: T1 sequence with A137D, A164V

T8: human CD81 mutant S168T (human, UniProt P60033 1-236, limits assumed)
T8 construct: as m30; not shown: C-terminal V5 and 6xHis tags
T8 sequence: T1 sequence with A137D, S168T

T9: human CD81 mutant V169L (human, UniProt P60033 1-236, limits assumed)
T9 construct: as m30; not shown: C-terminal V5 and 6xHis tags
T9 sequence: T1 sequence with A137D, V169L

T10: human CD81 on CD81-expressing cells (Jurkat E6.1, human PBMC, Ramos) (human, UniProt P60033 1-236)
T10 sequence: T1 sequence with A137D

B1: 002-A07 IgG4 antibody (antibody)
heavy: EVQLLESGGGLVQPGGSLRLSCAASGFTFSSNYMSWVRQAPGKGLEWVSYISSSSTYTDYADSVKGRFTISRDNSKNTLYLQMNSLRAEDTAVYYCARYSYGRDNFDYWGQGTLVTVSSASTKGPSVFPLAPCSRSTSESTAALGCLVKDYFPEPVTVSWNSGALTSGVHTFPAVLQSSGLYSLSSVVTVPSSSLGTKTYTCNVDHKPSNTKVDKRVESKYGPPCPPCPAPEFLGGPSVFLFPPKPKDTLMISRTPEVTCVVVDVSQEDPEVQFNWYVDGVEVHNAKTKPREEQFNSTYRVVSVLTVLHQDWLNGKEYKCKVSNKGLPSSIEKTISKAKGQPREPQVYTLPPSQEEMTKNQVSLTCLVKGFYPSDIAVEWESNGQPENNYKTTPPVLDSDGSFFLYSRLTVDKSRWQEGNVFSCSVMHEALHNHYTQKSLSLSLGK
light: QSVLTQPPSASGTPGQRVTISCTGSTSNIGAGYDTHWYQQLPGTAPKLLIYGNSNRPSGVPDRFSGSKSGTSASLAISGLRSEDEADYYCQSYDTNLSVWVFGGGTKLTVLGQPKAAPSVTLFPPSSEELQANKATLVCLISDFYPGAVTVAWKADSSPVKAGVETTTPSKQSNNKYAASSYLSLTPEQWKSHRSYSCQVTHEGSTVEKTVAPTECS
notes: human IgG4 S228P, lambda light chain
B2: 003-D07 (antibody, human IgG4 S228P, lambda, V domains shown)
VH: EVQLLESGGGLVQPGGSLRLSCAASGFTFSSNYMSWVRQAPGKGLEWVSYISSSSTYTDYADSVKGRFTISRDNSKNTLYLQMNSLRAEDTAVYYCARYSYDRDNFDYWGQGTLVTVSS
VL: QSVLTQPFSASGTPGQRVTISCTGSTSNIGAGYDTHWYQHLPGTAPKLLIYGNSNRPSGVPDRFSGSKSGTSASLAISGLRSEDEADYYCQSYDTNLSVWVFGGGTKLTVLG
notes: IgG4 S228P
B3: 002-A07 N113Q (antibody, human IgG4 S228P, lambda, V domains shown)
VH: B2 VH with D102G
VL: B2 VL with F8P, H40Q, N96Q
notes: IgG4 S228P; glycosylation site mutant of 002-A07 VL
B4: 002-A07 S115A (antibody, human IgG4 S228P, lambda, V domains shown)
VH: B2 VH with D102G
VL: B2 VL with F8P, H40Q, S98A
notes: as for B3
B5: 002-A07 N113S (antibody, human IgG4 S228P, lambda, V domains shown)
VH: B2 VH with D102G
VL: B2 VL with F8P, H40Q, N96S
notes: as for B3
B6: 002-A07 S115G (antibody, human IgG4 S228P, lambda, V domains shown)
VH: B2 VH with D102G
VL: B2 VL with F8P, H40Q, S98G
notes: as for B3
B7: 002-A07 N113G (antibody, human IgG4 S228P, lambda, V domains shown)
VH: B2 VH with D102G
VL: B2 VL with F8P, H40Q, N96G
notes: as for B3

Target: T1, human CD81 mutant D137A
Test: ELISA

Row | relative binding affinity [%] | Binder
1 | < 20 | B1
2 | < 20 | B2
3 | < 20 | B3
4 | < 20 | B4
5 | < 20 | B5
6 | < 20 | B6
7 | < 20 | B7

Target: T2, human CD81 mutant L165A
Test: ELISA

Row | relative binding affinity [%] | Binder
8 | < 20 | B1
9 | < 20 | B2
10 | < 20 | B3
11 | < 20 | B4
12 | < 20 | B5
13 | < 20 | B6
14 | < 20 | B7

Target: T3, human CD81 mutant V135L
Test: ELISA

Row | relative binding affinity [%] | Binder
15 | < 20 | B1
16 | < 20 | B2
17 | < 20 | B3
18 | < 20 | B4
19 | < 20 | B5
20 | < 20 | B6
21 | < 20 | B7

Target: T4, human CD81 mutant D137E
Test: ELISA

Row | relative binding affinity [%] | Binder
22 | < 20 | B1
23 | < 20 | B3
24 | < 20 | B4
25 | < 20 | B5
26 | < 20 | B6
27 | < 20 | B7

Target: T5, human CD81 mutant H151R
Test: ELISA

Row | relative binding affinity [%] | Binder
28 | < 20 | B1
29 | < 20 | B2
30 | < 20 | B3
31 | < 20 | B4
32 | < 20 | B5
33 | < 20 | B6
34 | < 20 | B7

Target: T6, human CD81 mutant G158A
Test: ELISA

Row | relative binding affinity [%] | Binder
35 | < 20 | B1
36 | < 20 | B3
37 | < 20 | B4
38 | < 20 | B5
39 | < 20 | B6
40 | < 20 | B7

Target: T7, human CD81 mutant A164V
Test: ELISA

Row | relative binding affinity [%] | Binder
41 | < 20 | B1
42 | < 20 | B2
43 | < 20 | B3
44 | < 20 | B4
45 | < 20 | B5
46 | < 20 | B6
47 | < 20 | B7

Target: T8, human CD81 mutant S168T
Test: ELISA

Row | relative binding affinity [%] | Binder
48 | < 20 | B1
49 | < 20 | B3
50 | < 20 | B4
51 | < 20 | B5
52 | < 20 | B6
53 | < 20 | B7

Target: T9, human CD81 mutant V169L
Test: ELISA

Row | relative binding affinity [%] | Binder
54 | < 20 | B1
55 | < 20 | B2
56 | < 20 | B3
57 | < 20 | B4
58 | < 20 | B5
59 | < 20 | B6
60 | < 20 | B7

Target: T10, human CD81 on CD81-expressing cells …
Test: cell-based or functional assay

Row | Jurkat chemotaxis (% of control IgG4) at 0.001 µg/mL [%] | Jurkat chemotaxis (% of control IgG4) at 0.01 µg/mL [%] | Jurkat chemotaxis (% of control IgG4) at 0.1 µg/mL [%] | Jurkat chemotaxis (% of control IgG4) at 1 µg/mL [%] | Jurkat chemotaxis (% of control IgG4) at 10 µg/mL [%] | Binder
61 | 90 | 93 | 21 | -2 | 3 | B1
62 | 87 | 79 | 42 | -5 | -9 | B2
63 | 104 | 99 | 37 | 13 | 12 | B3
64 | 82 | 78 | 32 | -4 | -9 | B4
65 | 99 | 101 | 40 | 13 | 12 | B5
66 | 84 | 74 | 13 | -9 | -3 | B6
67 | 99 | 101 | 38 | 13 | 7 | B7
